# Article PMC6354057 (Molecules and Cells, 2019)
# Target: the molecule itself
# Test: crystal structure
protein,measurement,value
"Histidine triad nucleotide-binding protein (HINT) from Candida albicans (enzyme, UniProt Q59WG0 1-152, looked up) MASHASCIFCKIIKGEIPSFKLIETAKTYSFLDIQPIAEAHVLIIPKHHGAKLHNIPDDYLSDILPVVKKLTKVLKLDENNTPEGEGYNVLQNNGRIAHQVVDHVHFHLIPKKDEATGLGVGWPAEATDFDKLGKLHEKLKEELAKVDNEKL",stoichiometry N,2
